# Measured values from the RNAGym collection of RNA variant scans (doi:10.1021/acssynbio.7b00057).
# B1: Pistol ribozyme (parent)
# chain: GGGUCGUUGUUCCAUAAUCGCGUGGAUAUGGCACGCAAGUUUCUACCGGGCACCGUAAAUGUCCGACUGGAGCCGUUCGGGCGGCUAUAAACAGACCUCAGGCCCGAAGCGUGGCGGCACCUGCCGCCGGUGGUAAAAAAGAUCGGAAGAGCACACGUCU
# Variants of: B1
# Experiment: aptazyme ON/OFF ratio, guanine; higher = stronger switching; co-transcriptional cleavage with and without guanine
row,Variant,aptazyme ON/OFF ratio
1,U7A U8G G9A U11A C12A,1.56
2,U7A G9U U10A U11G C13U,1.21
3,U7G U8C G9U U10A U11A C13G,1.08
4,U8A G9A U11A C13G,1.03
5,U8C U10A U11C C12A C13G,1.07
6,U7A G9U U10A U11C C12G C13G,1.06
7,G9U U10A U11C C12G C13G,0.978
8,U7G G9U U10G U11A,1.23
9,U7C U8A U10C C12G C13A,1.19
10,U7G G9A U11G C12A C13U,1.07
11,U7A U8G U10C U11A,1.95
12,U7G U8C G9U U11G C12G C13U,1.09
13,U8G G9U U10C U11A C12U C13U,1.08
14,U7G U8G G9U U10C,1.51
15,U7G U8C U10G,1.31
16,U7A U8A G9C C12G C13U,1.18
17,U7G U8A U11A C13G,1.15
18,U7G U8G G9C U10A C12G C13U,1.04
19,U7A U8G C12A C13A,1.27
20,U7A G9C U10A U11A C12G C13G,1.1
21,U7A G9C U10G U11A C12U C13G,1.07

row,Variant,aptazyme ON/OFF ratio
1,G9A U10A U11A C13G,1.05
2,U7G U8G U10G U11C,2.08
3,U7G U8C G9C U11G C12A C13A,1.14
4,U7A G9U U10G U11G C13A,1.22
5,U7G U8C G9C U10C U11C C12U C13G,1.21
6,U7C U8C G9U U10C U11G C12A C13A,1.11
7,U7G U8C G9A U10C U11C C13G,1.03
8,U7C U8C G9U U10A U11A C12U C13G,1.14
9,U7A U8G U11G C12U C13G,1.29
10,U7A U8C U10A U11C C13A,1.05
11,U7C U8C G9U U11C C12G C13U,1.08
12,U7G U8G G9A C13U,1.36
13,U8A G9U U10C U11A,1.34
14,U7C U8A U11C C12G,1.36
15,U7A U8A G9C U10A U11G C12A C13A,1.07
16,G9A U10C,3.12
17,U7G U10G U11G C12U,1.24
18,U7A G9C U10G U11A C13U,1.05
19,U8G G9C U10A U11G C12U C13U,1.17
20,U8G G9A U10G U11C C12A C13A,1.18
21,U7G U8A G9C U10C U11G C12U C13G,1.03

row,Variant,aptazyme ON/OFF ratio
1,U7A U8A C12G,1.41
2,U7G U8G G9C U10C C12U C13U,1.08
3,U7G U8G G9A U10G U11G,1.61
4,U7G U8A G9C U10C U11G C12A C13U,1.01
5,U8C G9C U10A U11A C12G C13G,1.18
6,U7C G9C U10C U11C C12U C13G,1.02
7,G9C U10C U11C C13G,1.03
8,U7A U8G G9A U10A U11G C12A C13U,1.4
9,U8A G9A U10A C13G,1.1
10,U7C U8G G9U U10A C12G C13A,1.13
11,U7G U8A G9U U10G,1.51
12,U7G U11C C12A,1.21
13,U7G U8C G9C U10A U11G C12U C13G,1.24
14,G9U U10A U11C C12U C13G,1.39
15,U7A U8A U11C C13A,1.4
16,U7G G9C U10C U11A C12U C13A,1.18
17,U7C G9U U10C U11A C12A,1.25
18,U7C U8A G9C U10C U11G C12G C13A,1.11
19,U7G U8C U11A C12U,1.31
20,U8C G9A U10C U11A C12G,1.37
21,U7G U8A G9U U10G C13G,1.19

row,Variant,aptazyme ON/OFF ratio
1,U7G G9C C12G,1.91
2,G9A U10A U11C C12G C13A,1.31
3,U8C G9C U10C U11C C12A C13U,1.02
4,U7A U8G U10A U11A C13A,1.28
5,U7C G9A U11C C12G C13G,1.17
6,U7G U8A G9C U10G C13U,1.1
7,G9C U10G U11A,1.08
8,U8A G9U U10A U11G C12A C13G,1.19
9,U7C U8G G9U U10G C12U C13U,1.32
10,U7G U8A G9U U10A U11A C12U C13U,1.06
11,U7G G9A U10C U11A C12G C13U,1.12
12,U7G U8G U11A,1.67
13,U7A U8C G9A U11A C12A,1.43
14,U8A G9C U10A C12A,1.27
15,U8G G9U U10C C12A,1.19
16,U7G U8C U10G U11G C12U C13G,1.29
17,G9A U10C U11A C12A C13G,1.42
18,U7G G9C U10G C12A C13A,1.23
19,U8C G9A C12A C13A,1.33
20,U8C G9A U10C U11G,1.19
